Reference: PMC9465852, “Comparative analyses of vertebrate CPEB proteins define two subfamilies with coordinated yet distinct functions in post-transcriptional gene regulation”

Assays:
CPEB4 [1] = target: T1, CPEB4 (Xenopus laevis, UniProt A0A1L8GV75 1-702); test: AlphaScreen; 50 nM protein, 0.5-75 nM RNA; CPEB4 binds A- and G-CPE equally well; 10 mM HEPES pH 7.4, 100 mM KCl, 3 mM MgCl2, 1 mM DTT, 0.2 mg/mL tRNA, 0.1% Tween; room temperature; 50 or 75 nM protein; settings: protein: recombinant; tags: 6xHis; label: 3' biotin; single strand
T1 sequence (A0A1L8GV75 entry or part of it): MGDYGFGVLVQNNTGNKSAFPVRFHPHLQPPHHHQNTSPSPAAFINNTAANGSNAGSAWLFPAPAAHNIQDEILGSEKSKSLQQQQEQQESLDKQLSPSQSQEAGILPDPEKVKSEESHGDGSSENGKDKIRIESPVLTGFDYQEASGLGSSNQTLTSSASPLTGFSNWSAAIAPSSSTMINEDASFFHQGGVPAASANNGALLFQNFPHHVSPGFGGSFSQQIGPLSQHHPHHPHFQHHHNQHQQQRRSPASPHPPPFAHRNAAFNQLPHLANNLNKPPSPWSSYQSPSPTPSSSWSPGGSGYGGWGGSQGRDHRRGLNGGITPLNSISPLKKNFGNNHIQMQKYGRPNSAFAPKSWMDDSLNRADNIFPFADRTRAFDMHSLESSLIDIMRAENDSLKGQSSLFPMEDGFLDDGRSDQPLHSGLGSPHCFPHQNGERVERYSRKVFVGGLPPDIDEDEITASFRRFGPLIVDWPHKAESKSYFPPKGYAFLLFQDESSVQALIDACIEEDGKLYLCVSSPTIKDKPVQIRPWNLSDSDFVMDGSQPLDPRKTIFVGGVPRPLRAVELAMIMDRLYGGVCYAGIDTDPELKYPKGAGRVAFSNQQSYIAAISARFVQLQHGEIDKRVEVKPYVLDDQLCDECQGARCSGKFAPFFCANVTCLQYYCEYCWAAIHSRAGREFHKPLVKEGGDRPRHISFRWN

CPEB4 [2] = target: T1, CPEB4; test: AlphaScreen; 50 nM protein, 0.5-75 nM RNA; equal to or better than CPE-A; 10 mM HEPES pH 7.4, 100 mM KCl, 3 mM MgCl2, 1 mM DTT, 0.2 mg/mL tRNA, 0.1% Tween; room temperature; 50 or 75 nM protein; settings: protein: recombinant; tags: 6xHis; label: 3' biotin; single strand

AGUGUACAGUGUUUUUAAUAGUUUGUUG (ssRNA, 3' biotin) [CPE-A]: binds (CPEB4 [1]).

AGUGUACAGUGUUUUUGUAAGUUUGUUG (ssRNA, 3' biotin) [CPE-G]: binds (CPEB4 [2]).
